Measured values as given in US20180044433A1 (FONDAZIONE IRCCS INSTITUTO NAZIONALE DEI TUMORI, published 2018).

Assays:
JMJD6 peptide 1 = target: T1, JMJD6 peptide 1 (human); assay: ELISA on plated peptides (1 ug/well)
T1 construct: also called pool A
T1 peptide: MNHKSKKRIREAKR
Description: (§1) A peptide library was synthesized (Primm), consisting of 57 peptides with 14 amino acids each and whose sequences overlap for 7 amino acids. In order to assay the interaction with collagen, the peptides, were sown in a plate (1 ug/well) and incubated for the whole night at 4° C. […] The reaction was developed and read at 450 nm as indicated above. As control two unrelated peptides were used and the reactivity of the antibodies on the peptides in absence of collagen was evaluated.

JMJD6 peptide 2 = target: T2, JMJD6 peptide 2 (human); assay: ELISA on plated peptides (1 ug/well)
T2 construct: also called pool A
T2 peptide: RIREAKRSARPELK
Description: as §1

JMJD6 peptide 13 = target: T3, JMJD6 peptide 13 (human); assay: ELISA on plated peptides (1 ug/well)
T3 construct: also called pool B
T3 peptide: WTLERLKRKYRNQK
Description: as §1

JMJD6 peptide 14 = target: T4, JMJD6 peptide 14 (human); assay: ELISA on plated peptides (1 ug/well)
T4 construct: also called pool B
T4 peptide: RKYRNQKFKCGEDN
Description: as §1

JMJD6 peptide 16 = target: T5, JMJD6 peptide 16 (human); assay: ELISA on plated peptides (1 ug/well)
T5 construct: also called pool C
T5 peptide: DGYSVKMKMKYYIE
Description: as §1

JMJD6 peptide 17 = target: T6, JMJD6 peptide 17 (human); assay: ELISA on plated peptides (1 ug/well)
T6 construct: also called pool C
T6 peptide: KMKYYIEYMESTRD
Description: as §1

JMJD6 peptide 20 = target: T7, JMJD6 peptide 20 (human); assay: ELISA on plated peptides (1 ug/well)
T7 construct: also called pool D
T7 peptide: DSSYGEHPKRRKLL
Description: as §1

JMJD6 peptide 21 = target: T8, JMJD6 peptide 21 (human); assay: ELISA on plated peptides (1 ug/well)
T8 construct: also called pool D
T8 peptide: PKRRKLLEDYKVPK
Description: as §1

JMJD6 peptide 24 = target: T9, JMJD6 peptide 24 (human); assay: ELISA on plated peptides (1 ug/well)
T9 construct: also called pool E
T9 peptide: QYAGEKRRPPYRWF
Description: as §1

JMJD6 peptide 25 = target: T10, JMJD6 peptide 25 (human); assay: ELISA on plated peptides (1 ug/well)
T10 construct: also called pool E
T10 peptide: RPPYRWFVMGPPRS
Description: as §1

JMJD6 peptide 29 = target: T11, JMJD6 peptide 29 (human); assay: ELISA on plated peptides (1 ug/well)
T11 construct: also called pool F
T11 peptide: NALVQGHKRWCLFP
Description: as §1

JMJD6 peptide 30 = target: T12, JMJD6 peptide 30 (human); assay: ELISA on plated peptides (1 ug/well)
T12 construct: also called pool F
T12 peptide: KRWCLFPTSTPREL
Description: as §1

JMJD6 peptide 38 = target: T13, JMJD6 peptide 38 (human); assay: ELISA on plated peptides (1 ug/well)
T13 construct: also called pool G
T13 peptide: KPGETVFVPGGWWH
Description: as §1

JMJD6 peptide 39 = target: T14, JMJD6 peptide 39 (human); assay: ELISA on plated peptides (1 ug/well)
T14 construct: also called pool G
T14 peptide: VPGGWWHVVLNLDT
Description: as §1

JMJD6 peptide 40 = target: T15, JMJD6 peptide 40 (human); assay: ELISA on plated peptides (1 ug/well)
T15 construct: also called pool G
T15 peptide: VVLNLDTTIAITQN
Description: as §1

JMJD6 peptide 41 = target: T16, JMJD6 peptide 41 (human); assay: ELISA on plated peptides (1 ug/well)
T16 construct: also called pool G
T16 peptide: TIAITQNFASSTNF
Description: as §1

JMJD6 peptide 43 = target: T17, JMJD6 peptide 43 (human); assay: ELISA on plated peptides (1 ug/well)
T17 construct: also called pool H
T17 peptide: PVVWHKTVRGRPKL
Description: as §1

JMJD6 peptide 44 = target: T18, JMJD6 peptide 44 (human); assay: ELISA on plated peptides (1 ug/well)
T18 construct: also called pool H
T18 peptide: VRGRPKLSRKWYRI
Description: as §1

JMJD6 peptide 45 = target: T19, JMJD6 peptide 45 (human); assay: ELISA on plated peptides (1 ug/well)
T19 construct: also called pool H
T19 peptide: SRKWYRILKQEHPE
Description: as §1

JMJD6 peptide 53 = target: T20, JMJD6 peptide 53 (human); assay: ELISA on plated peptides (1 ug/well)
T20 construct: also called pool I
T20 peptide: SEGDGTVHRRKKRR
Description: as §1

JMJD6 peptide 54 = target: T21, JMJD6 peptide 54 (human); assay: ELISA on plated peptides (1 ug/well)
T21 construct: also called pool I
T21 peptide: HRRKKRRTCSMVGN
Description: as §1

[1] = target: T22, JMJD6 5′/FLAG (amino acids 1-305 with C-terminal FLAG) (human, UniProt Q6NYC1 1-305); assay: immunofluorescence on transfected MeWo cells
T22 construct: range 1-305; Expressed in transfected MeWo cells and tested by immunofluorescence; also called JM 5′/FLAG

Measured: binding result

B1: monoclonal antibody P4E11 (antibody, V domains shown, not shown: a dimerising Fc or GST)
VH: QVQLKQSGPGLVQPSQSLSITCTVSGFSLSSYGVHWVRQSPGKGLEWLGVIWRSGNTDYNAVFMSRLSITKDDSKSQVFFKMNSLQADDTAIYYCAKNFRYDVGSWFAYWGQGTLVTVSA
VL: NIMMTQSPSSLAVSAGEKVTMNCKSSQSILYSSNHKNYLAWYQQKPGQSPKLLIYWASTRESGVPNRFTGSGSGTDFTLTISSVQSEDLAVYYCHQYLSSYTFGGGTKLEIKR
no binding: all assays above
